According to PMC12000442 (Nature Communications, 2025):

Biological target: T1, NAA10^R4S-3xFLAG (human, UniProt P41227 1-235, R4S)
T1 sequence: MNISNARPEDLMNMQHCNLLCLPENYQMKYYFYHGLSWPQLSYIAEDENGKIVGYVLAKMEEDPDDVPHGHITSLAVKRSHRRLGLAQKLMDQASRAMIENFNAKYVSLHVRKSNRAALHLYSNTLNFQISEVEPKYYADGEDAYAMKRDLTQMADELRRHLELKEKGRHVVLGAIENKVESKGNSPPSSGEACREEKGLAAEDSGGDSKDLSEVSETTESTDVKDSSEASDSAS
Assay: co-IP

B1: NAA15 (natural protein)
chain: MPAVSLPPKENALFKRILRCYEHKQYRNGLKFCKQILSNPKFAEHGETLAMKGLTLNCLGKKEEAYELVRRGLRNDLKSHVCWHVYGLLQRSDKKYDEAIKCYRNALKWDKDNLQILRDLSLLQIQMRDLEGYRETRYQLLQLRPAQRASWIGYAIAYHLLEDYEMAAKILEEFRKTQQTSPDKVDYEYSELLLYQNQVLREAGLYREALEHLCTYEKQICDKLAVEETKGELLLQLCRLEDAADVYRGLQERNPENWAYYKGLEKALKPANMLERLKIYEEAWTKYPRGLVPRRLPLNFLSGEKFKECLDKFLRMNFSKGCPPVFNTLRSLYKDKEKVAIIEELVVGYETSLKSCRLFNPNDDGKEEPPTTLLWVQYYLAQHYDKIGQPSIALEYINTAIESTPTLIELFLVKAKIYKHAGNIKEAARWMDEAQALDTADRFINSKCAKYMLKANLIKEAEEMCSKFTREGTSAVENLNEMQCMWFQTECAQAYKAMNKFGEALKKCHEIERHFIEITDDQFDFHTYCMRKITLRSYVDLLKLEDVLRQHPFYFKAARIAIEIYLKLHDNPLTDENKEHEADTANMSDKELKKLRNKQRRAQKKAQIEEEKKNAEKEKQQRNQKKKKDDDDEEIGGPKEELIPEKLAKVETPLEEAIKFLTPLKNLVKNKIETHLFAFEIYFRKEKFLLMLQSVKRAFAIDSSHPWLHECMIRLFNTAVCESKDLSDTVRTVLKQEMNRLFGATNPKNFNETFLKRNSDSLPHRLSAAKMVYYLDPSSQKRAIELATTLDESLTNRNLQTCMEVLEALYDGSLGDCKEAAEIYRANCHKLFPYALAFMPPGYEEDMKITVNGDSSAEAEELANEI
Q: Which “binding capacity relative to WT” value does the source give for B1 here?
A: 0.5 relative to WT (WT = 1.0)
